# In US20260042848A1 (BIOLEGEND, published 2026):
# T1: native human AXL on non-transfected human cell lines (A-431, A-549, HeLa, MDA-MB-231, NCI-H1299) (human, UniProt P30530 26-894)
# T1 construct: Endogenous AXL of carcinoma cell lines; also called human AXL receptor tyrosine kinase; AXL receptor
# T1 sequence: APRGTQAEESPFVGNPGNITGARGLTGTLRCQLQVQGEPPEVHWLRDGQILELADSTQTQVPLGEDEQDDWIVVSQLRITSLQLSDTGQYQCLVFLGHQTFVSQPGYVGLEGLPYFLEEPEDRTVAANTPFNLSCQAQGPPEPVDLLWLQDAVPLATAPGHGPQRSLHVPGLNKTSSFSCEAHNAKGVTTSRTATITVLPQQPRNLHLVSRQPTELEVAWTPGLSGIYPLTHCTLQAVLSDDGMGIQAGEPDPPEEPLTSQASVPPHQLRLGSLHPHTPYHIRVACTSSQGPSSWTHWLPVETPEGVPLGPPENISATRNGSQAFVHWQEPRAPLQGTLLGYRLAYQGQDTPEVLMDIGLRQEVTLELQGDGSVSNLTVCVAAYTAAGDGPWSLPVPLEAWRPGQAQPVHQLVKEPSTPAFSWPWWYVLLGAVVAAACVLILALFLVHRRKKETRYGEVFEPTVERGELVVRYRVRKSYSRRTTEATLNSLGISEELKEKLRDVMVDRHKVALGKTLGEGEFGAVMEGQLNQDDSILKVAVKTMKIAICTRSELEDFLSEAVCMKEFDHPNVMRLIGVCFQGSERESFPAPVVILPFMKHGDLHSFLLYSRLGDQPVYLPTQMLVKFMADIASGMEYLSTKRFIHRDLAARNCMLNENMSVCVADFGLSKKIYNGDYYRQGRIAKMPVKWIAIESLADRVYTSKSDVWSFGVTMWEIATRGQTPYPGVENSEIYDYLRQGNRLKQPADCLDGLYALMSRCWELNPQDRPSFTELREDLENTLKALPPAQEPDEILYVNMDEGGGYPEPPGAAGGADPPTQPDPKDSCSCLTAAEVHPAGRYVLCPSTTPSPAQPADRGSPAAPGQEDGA
# T2: Human AXLΔcyto-IG (human AXL lacking the cytoplasmic domain) on transfected BA/F3 cells (human, UniProt P30530 26-472, limits assumed)
# T2 construct: GFP is co-expressed from the vector; also called huAXLΔcyto-IG; human AXL transfected BA/F3 cells
# T2 sequence: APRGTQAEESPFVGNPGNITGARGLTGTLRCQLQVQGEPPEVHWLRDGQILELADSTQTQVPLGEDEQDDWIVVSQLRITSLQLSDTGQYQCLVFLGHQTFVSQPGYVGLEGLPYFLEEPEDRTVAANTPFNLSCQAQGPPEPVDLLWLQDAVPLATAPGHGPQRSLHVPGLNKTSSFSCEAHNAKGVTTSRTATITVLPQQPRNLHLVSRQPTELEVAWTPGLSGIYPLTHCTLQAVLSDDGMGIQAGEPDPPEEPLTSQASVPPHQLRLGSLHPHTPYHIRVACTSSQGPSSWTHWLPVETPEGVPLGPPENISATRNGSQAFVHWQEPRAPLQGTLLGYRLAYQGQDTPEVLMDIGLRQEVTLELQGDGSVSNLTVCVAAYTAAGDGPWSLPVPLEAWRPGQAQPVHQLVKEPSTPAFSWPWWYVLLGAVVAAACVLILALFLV
# T3: hAXL recombinant protein (Sino Biological, Catalog #10279-H08H) (human, UniProt P30530 26-449)
# T3 construct: Bought soluble protein; also called human AXL recombinant protein; recombinant human AXL protein
# T3 sequence: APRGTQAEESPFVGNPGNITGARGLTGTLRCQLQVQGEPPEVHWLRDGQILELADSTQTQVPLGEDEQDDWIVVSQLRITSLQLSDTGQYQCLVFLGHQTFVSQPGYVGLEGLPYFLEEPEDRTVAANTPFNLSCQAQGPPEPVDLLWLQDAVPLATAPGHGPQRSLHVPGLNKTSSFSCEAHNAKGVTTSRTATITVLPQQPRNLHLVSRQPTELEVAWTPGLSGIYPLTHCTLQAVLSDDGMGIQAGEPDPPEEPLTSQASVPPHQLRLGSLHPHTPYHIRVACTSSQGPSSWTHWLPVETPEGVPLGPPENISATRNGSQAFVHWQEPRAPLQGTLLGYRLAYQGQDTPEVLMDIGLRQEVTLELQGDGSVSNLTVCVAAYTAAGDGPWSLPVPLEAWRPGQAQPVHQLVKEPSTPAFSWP
# Tests used:
# [1] = target: mGypa (mouse Glycophorin A) on transfected BA/F3 cells (mouse, UniProt P14220 1-168); assay: flow cytometry on mGypa-transfected BA/F3 cells, anti-mouse IgG-APC secondary
# [2] = target: T1, native human AXL on non-transfected …; assay: flow cytometry, PE conjugate on A-431, A-549, HeLa, MDA-MB-231 and NCI-H1299 cells
# Source text: In contrast, the cell lines used for FIGS. 2F-2G (TH-29 and Jurkat, respectively) are known to be negative for human AXL and were thus used as negative controls.
# Once cells reached 80% confluency, cells were detached from the flask using 0.25% Trypsin-0.1% EDTA and suspended in cell staining buffer. […] Cells were washed with FACS buffer and analyzed on a BD Canto II flow cytometer.
# [3] = target: T2, Human AXLΔcyto-IG (human AXL lacking …); assay: flow cytometry on Human AXLΔcyto-IG transfected BA/F3 cells, anti-mouse IgG-APC secondary
# Description: (§1) FIG. 1A depicts surface staining on BA/F3 cells transfected with human AXL, and FIG. 1B depicts surface staining on BA/F3 cells transfected with mGypa (mouse Glycophorin A) as a control. BA/F3 cells (IL-3 dependent mouse pro-B cell line) were used to eliminate the possibility of human proteins being expressed. The transfection efficiency was measured by GFP, which is used to visualize/identify cells that have been transfected and are expressing the vector. GFP (or FITC) on the x-axis identifies cells that are positive for GFP (i.e., cells that have been transfected). […] Cells were then washed and stained with a secondary antibody (anti-mouse IgG-APC).
# (§2) In a first experiment, exemplary anti-human AXL antibodies were assessed on an IL-3 dependent murine pro B cell line (BA/F3, RIKEN CELL BANK, Cat #RCB4476), transfected with Human AXLΔcyto-IG (Ba/F3 cells were retrovirally transduced with human AXL lacking the cytoplasmic domain and GFP). […] Cells were then washed twice with FACS wash buffer and stained with anti-mouse IgG-APC secondary antibody for 15 minutes. Cells were washed with FACS buffer and analyzed on a BD Canto II and corresponding data was analyzed by FlowJo.
# [4] = target: T3, hAXL recombinant protein (Sino …); assay: pre-incubation of antibody with soluble recombinant human AXL, then flow cytometry on human AXL-transfected BA/F3 cells (FIG. 3B)
# Description: (§3) In each case, cell populations of interest were selected by setting and displaying gates (for visual comparison purposes) based on the corresponding isotype control.
# (§4) PE conjugated mIgG1 and mIgG2a, or PU-IgG1 were used as controls. After incubation, 2×10⁶/100 μL of huAXLΔcyto-IG transfected BA/F3 cells were added to each tube, and cells were acquired on a BD Canto II and corresponding data was analyzed by FlowJo.
# [5] = target: T2, Human AXLΔcyto-IG (human AXL lacking …); assay: flow cytometry on human AXL-transfected BA/F3 cells, anti-mouse IgG-APC secondary
# Description: as §1, §2
# [6] = target: T3, hAXL recombinant protein (Sino …); assay: pre-incubation of antibody with soluble recombinant human AXL, then flow cytometry on human AXL-transfected BA/F3 cells (FIG. 3D)
# Description: as §3, §4
Binder,binding result [1],binding result [2],binding result [3],binding result [4],binding result [5],binding result [6]
"AB6 (antibody, V domains shown, Mouse hybridoma monoclonal; also called antibody 6; PE-AB6) VH: EVNLVESGGGLVQPGGSLKLSCATSGFTFSDYYMYWVRQTPEKRLEWVAYISNGGGSTYYPDTVKGRFTISRDNAKNTLYLQMSRLKSEDTAMYYCARLHFYAMDYWGQGTSVTVSS VL: DIVMTQSHKFMSTSVGDRVSITCKASQDVSTAVAWYQQKPGQSPKLLIYWASTRHTGVPDRFTGSGSGTDYTLTISSVQAEDLALYYCQQHYNTPFTFGSGTKLEIK",no binding (tested: 1 ug (printed 'lug')),binds,binds,binds,,
"AB1 (antibody, V domains shown, Mouse hybridoma monoclonal; also called antibody 1; PU-conjugated AB1) VH: DVQLQESGPDLVKPSQSLSLTCTVTGYSITSAYSWHWIRQFPGNKLEWMGYIHYSGSTNYNPSLKSRISITRDTSKNQFFLQLNSVTTEDTATYYCARSLWFYAMDYWGQGTSVTVSS VL: DVQITQSPSYLAASPGETITINCRASKSISKYLAWYQEKPGKTNKLLIYSGSTLQSGIPSRFSGSGSGTDFTLTISSLEPEDFAMYYCQQHNEYPWTFGGGTKLEIK",no binding (tested: 1 ug (printed 'lug')),,,,binds,binds
"AB2 (antibody, V domains shown, Mouse hybridoma monoclonal; also called antibody 2; PE-AB2) VH: DVQLQESGPDLVKPSQSLSLTCTVTGYSITSAYSWHWIRQFPGNKLEWMGYIHYSGSTNYNPSLKSRISITRDTSKNQFFLQLNSVTTEDTATYYCARSLWFYAMDYWGQGTSVTVSS VL: DIQMNQSPSSLSASLGDTITITCHASQNINVWLNWYQQKPGNIPKLLIYKASNLHTGVPSRFSGSGSGTGFTLTISSLQPEDIATYYCQQGQSYPLTFGGGTKLEIK",no binding (tested: 1 ug (printed 'lug')),,,,,
"AB4 (antibody, V domains shown, Mouse hybridoma monoclonal; also called antibody 4; PE-AB4) VH: DVQLQESGPDLVKPSQSLSLTCTVTGYSITSAYSWHWIRQFPGNKLEWMGYIHYSGSTNYNPSLKSRISITRDTSKNQFFLQLSSVTTEDTATYYCARSLWFYAMDYWGQGTSVTVSS VL: DVQITQSPSYLAASPGETITIKCRASKSISKYLAWYQEKPGKTNKLLIYSGSTLHSGIPSRFSGSGSGTDFTLTISSLEPEDFAMYYCQQHNEYPWTFGGGTKLEIK",no binding (tested: 1 ug (printed 'lug')),binds,binds,binds,,
"AB3 (antibody, V domains shown, Mouse hybridoma monoclonal; also called antibody 3; PE-AB3) VH: QIQLVQSGPELKKPGETVKISCKASGYTFTNYGMNWVKQAPGKGLKWMGWINTYIGEPTYADDFKGRFAFSLETSASTAYLQINNLKNEDMGTYFCARGTTFYAMDYWGQGTSVTVSS VL: EIVLTQSPTTMAASPGEKITITCSASSSISSNYLHWYQQKPGFSPKLLIYRTSNLASGVPARFSGSGSGTSYSLTIGTMEAEDVATYYCQQGSSILTFGAGTKLELK",no binding (tested: 1 ug (printed 'lug')),,,,,
"AB5 (antibody, V domains shown, Mouse hybridoma monoclonal; also called antibody 5; PE-AB5) VH: QIQLVQSGPELKKPGETVKISCKASGYTFTNYGMNWVKQAPGKGLKWMGWINTYTGEPTYADDFKGRFAFSLETSASTAYLQINNLKNEDMATYFCARGDRFYAMDYWGQGTSVTVSS VL: EIVLTQSPTTMAASPGEKITITCSASSSISSNYLHWYQQKPGFSPKLLIYRTSNLASGVPTRFSGSGSGTSYSLTIGTMEAEDVATYYCQQGSSIFTFGSGTKLEIK",no binding (tested: 1 ug (printed 'lug')),binds,binds,binds,,
